Experiment [1] addresses T1, REK7, endogenous, on rat embryonic (E16) cortical neurons (rat, UniProt P54757 27-1005 at identity 0.97)).
T1 chain: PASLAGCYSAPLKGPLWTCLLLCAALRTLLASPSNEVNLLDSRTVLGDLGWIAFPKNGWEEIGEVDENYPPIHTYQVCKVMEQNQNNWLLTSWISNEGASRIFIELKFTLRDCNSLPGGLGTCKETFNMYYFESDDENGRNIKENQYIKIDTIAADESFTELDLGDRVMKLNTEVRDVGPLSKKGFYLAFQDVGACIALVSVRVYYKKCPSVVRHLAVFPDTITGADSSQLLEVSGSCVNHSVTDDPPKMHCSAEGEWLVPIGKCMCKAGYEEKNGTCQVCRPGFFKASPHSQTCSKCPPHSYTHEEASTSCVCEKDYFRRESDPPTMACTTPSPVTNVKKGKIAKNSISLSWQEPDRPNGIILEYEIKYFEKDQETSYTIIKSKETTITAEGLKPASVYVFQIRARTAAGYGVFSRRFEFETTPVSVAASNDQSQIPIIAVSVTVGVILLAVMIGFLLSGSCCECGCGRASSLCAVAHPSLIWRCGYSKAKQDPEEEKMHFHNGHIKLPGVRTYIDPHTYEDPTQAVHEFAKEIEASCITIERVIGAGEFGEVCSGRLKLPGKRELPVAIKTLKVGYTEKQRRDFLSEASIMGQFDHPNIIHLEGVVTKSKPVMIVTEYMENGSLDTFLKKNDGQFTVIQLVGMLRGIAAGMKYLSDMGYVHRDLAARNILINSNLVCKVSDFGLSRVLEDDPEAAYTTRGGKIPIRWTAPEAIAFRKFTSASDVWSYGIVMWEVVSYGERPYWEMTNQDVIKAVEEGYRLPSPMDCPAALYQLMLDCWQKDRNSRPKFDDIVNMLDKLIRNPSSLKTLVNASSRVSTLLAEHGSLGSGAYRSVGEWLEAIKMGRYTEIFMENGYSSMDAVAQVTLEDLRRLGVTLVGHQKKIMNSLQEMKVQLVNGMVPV
The experiment can be described thus: cell-based or functional assay.

Experiment [2] has as its target CD4-IgG (human, UniProt P01730 26-205). The experiment can be described thus: immunoaffinity chromatography of BT20 conditioned medium on CD4-IgG-Protein A precolumn; SDS-PAGE, silver stain. Here is the method:
200 ml of BT20 conditioned media, concentrated as described above from 12 liters and frozen, was thawed, centrifuged at 17,000 rpm in a Sorvall SS34 rotor, and filtered through a 0.45 μm filter to clarify the solution. The 200 ml was pumped through a 2.0 ml CD4-IgG—Protein A (CD4-IgG covalently linked to Protein A through IgG moiety) immunoaffinity precolumn and a 1.0 ml REK7-IgG - Protein A (REK7-IgG covalently linked to Protein A through IgG moiety) immunoaffinity column in tandem with a flow rate of 0.5 ml/min. All chromatography was carried out at 4° C. Following one complete passage of the media through both columns, the flow rate was reduced to 0.2 ml/min, and the media was recycled through both columns. Following the loading of the REK7-IgG column, the two column were separated from each other, washed with 10 column volumes of PBS, and then eluted with four separate washes of 100 mM sodium citrate, pH 3.0 (2 ml each for the CD4-IgG column and 1 ml each for the REK7-IgG column). The first two washes were allowed to immediately flow through the column whereas the last two were incubated for 15 minutes before collection. The eluates were brought to pH 7.4 by the addition of 50 mM potassium phosphate, and an aliquot of each was analyzed by sodium dodecycl sulfate (SDS)-polyacrylamide gel electrophoresis (PAGE). […]

B1: soluble AL-1 (purified, secreted form without the GPI membrane anchor) (ligand)
chain: QDPGSKAVADRYAVYWNSSNPRFQRGDYHIDVCINDYLDVFCPHYEDSVPEDKTERYVLYMVNFDGYSACDHTSKGFKRWECNRPHSPNGPLKFSEKFQLFTPFSLGFEFRPGREYFYISSAIPDNGRRSCLKLKVFVRPTNSCMKTIGVHDRVFDVNDKVENSLEPADDTVHESAEPSRGEN
notes: also called purified soluble AL-1; REK7 ligand from BT20 conditioned medium
B1: the “tyrosine autophosphorylation of REK7 (immunoprecipitation with anti-REK7, anti-phosphotyrosine immunoblot)” value in experiment [1] is approximately 2 fold. Further, in experiment [2], the binding result is “no binding”.

The record behind these values is patent US20020137126A1 (Genentech, published 2002).
